Consider 19 molecules from US20210301025A1 (published 2021).

The target in assay [1] is T1, EGFR (form used in the assay not stated) (human, UniProt P00533 25-645, limits assumed). The assay can be described thus: ELISA, NEM conjugate, 10 nM.
Assay [2] has as its target T1, EGFR (form used in the assay not stated). The assay can be described thus: ELISA, NEM conjugate, 500 nM. On the technique in general: An ELISA detects its analyte on a solid surface through an enzyme-linked reagent.
The target is the same in assay [3]. The assay can be described thus: ELISA, NEM conjugate, 100 nM.

B1: P54AR4-83v2 A3C, NEM conjugate (designed binder, not shown: small tags and cut ends)
chain: LPCPKNLVVSEVTEDSARLSWDDPWAFYESFLIQYQESEKVGEAIVLTVPGSERSYDLTGLKPGTEYTVSIYGVHNVYKDTNMRGLPLSAIFTT
modifications: N-ethyl maleimide (NEM) on Cys 3
Turning to B1, the “binding relative to P54AR4-83v2 parent” value was determined as 0.34 ratio in assay [1], 0.82 ratio in assay [2] and 0.88 ratio in assay [3].

B2: P54AR4-83v2 E43C, NEM conjugate (designed binder, not shown: small tags and cut ends)
chain: LPAPKNLVVSEVTEDSARLSWDDPWAFYESFLIQYQESEKVGCAIVLTVPGSERSYDLTGLKPGTEYTVSIYGVHNVYKDTNMRGLPLSAIFTT
modifications: N-ethyl maleimide (NEM) on Cys 43
As to B2, the “binding relative to P54AR4-83v2 parent” value came out at 0.68 ratio in assay [1], 0.92 ratio in assay [2] and 1.04 ratio in assay [3].

B3: P54AR4-83v2 E39C, NEM conjugate (designed binder, not shown: small tags and cut ends)
chain: LPAPKNLVVSEVTEDSARLSWDDPWAFYESFLIQYQESCKVGEAIVLTVPGSERSYDLTGLKPGTEYTVSIYGVHNVYKDTNMRGLPLSAIFTT
modifications: N-ethyl maleimide (NEM) on Cys 39
Take B3: the “binding relative to P54AR4-83v2 parent” value amounted to 0.9 ratio in assay [1], 0.9 ratio in assay [2] and 1 ratio in assay [3].

B4: P54AR4-83v2 E53C, NEM conjugate (designed binder, not shown: small tags and cut ends)
chain: LPAPKNLVVSEVTEDSARLSWDDPWAFYESFLIQYQESEKVGEAIVLTVPGSCRSYDLTGLKPGTEYTVSIYGVHNVYKDTNMRGLPLSAIFTT
modifications: N-ethyl maleimide (NEM) on Cys 53
As to B4, the results for the “binding relative to P54AR4-83v2 parent” value in assay [1], in assay [2] and in assay [3] were 0.91 ratio, 0.91 ratio and 1.02 ratio, respectively.

B5: P54AR4-83v2 A26C, NEM conjugate (designed binder, not shown: small tags and cut ends)
chain: LPAPKNLVVSEVTEDSARLSWDDPWCFYESFLIQYQESEKVGEAIVLTVPGSERSYDLTGLKPGTEYTVSIYGVHNVYKDTNMRGLPLSAIFTT
modifications: N-ethyl maleimide (NEM) on Cys 26
With B5, the “binding relative to P54AR4-83v2 parent” value is 0.95 ratio in assay [1], 0.95 ratio in assay [2] and 1.06 ratio in assay [3].

B6: P54AR4-83v2 G51C, NEM conjugate (designed binder, not shown: small tags and cut ends)
chain: LPAPKNLVVSEVTEDSARLSWDDPWAFYESFLIQYQESEKVGEAIVLTVPCSERSYDLTGLKPGTEYTVSIYGVHNVYKDTNMRGLPLSAIFTT
modifications: N-ethyl maleimide (NEM) on Cys 51
Take B6: the figures for the “binding relative to P54AR4-83v2 parent” value in assay [1], in assay [2] and in assay [3] were 0.88 ratio, 0.92 ratio and 1.03 ratio, respectively.

B7: P54AR4-83v2 G64C, NEM conjugate (designed binder, not shown: small tags and cut ends)
chain: LPAPKNLVVSEVTEDSARLSWDDPWAFYESFLIQYQESEKVGEAIVLTVPGSERSYDLTGLKPCTEYTVSIYGVHNVYKDTNMRGLPLSAIFTT
modifications: N-ethyl maleimide (NEM) on Cys 64
Consider B7, for which the “binding relative to P54AR4-83v2 parent” value turned out to be 1.28 ratio in assay [1], 1.36 ratio in assay [2] and 1.42 ratio in assay [3].

B8: P54AR4-83v2 G60C, NEM conjugate (designed binder, not shown: small tags and cut ends)
chain: LPAPKNLVVSEVTEDSARLSWDDPWAFYESFLIQYQESEKVGEAIVLTVPGSERSYDLTCLKPGTEYTVSIYGVHNVYKDTNMRGLPLSAIFTT
modifications: N-ethyl maleimide (NEM) on Cys 60
Consider B8, for which the “binding relative to P54AR4-83v2 parent” value in assay [1] worked out at 0.86 ratio; in assay [2] it was 0.93 ratio; in assay [3], 1.02 ratio.

B9: P54AR4-83v2 E11C, NEM conjugate (designed binder, not shown: small tags and cut ends)
chain: LPAPKNLVVSCVTEDSARLSWDDPWAFYESFLIQYQESEKVGEAIVLTVPGSERSYDLTGLKPGTEYTVSIYGVHNVYKDTNMRGLPLSAIFTT
modifications: N-ethyl maleimide (NEM) on Cys 11
B9: the “binding relative to P54AR4-83v2 parent” value in assay [1] worked out at 0.9 ratio; in assay [2], 0.95 ratio; in assay [3] it was 1.08 ratio.

B10: P54AR4-83v2 D15C, NEM conjugate (designed binder, not shown: small tags and cut ends)
chain: LPAPKNLVVSEVTECSARLSWDDPWAFYESFLIQYQESEKVGEAIVLTVPGSERSYDLTGLKPGTEYTVSIYGVHNVYKDTNMRGLPLSAIFTT
modifications: N-ethyl maleimide (NEM) on Cys 15
As to B10, the results for the “binding relative to P54AR4-83v2 parent” value in assay [1], in assay [2] and in assay [3] were 0.98 ratio, 0.97 ratio and 1.09 ratio, respectively.

B11: P54AR4-83v2 G42C, NEM conjugate (designed binder, not shown: small tags and cut ends)
chain: LPAPKNLVVSEVTEDSARLSWDDPWAFYESFLIQYQESEKVCEAIVLTVPGSERSYDLTGLKPGTEYTVSIYGVHNVYKDTNMRGLPLSAIFTT
modifications: N-ethyl maleimide (NEM) on Cys 42
In the case of B11, the “binding relative to P54AR4-83v2 parent” value in assay [1] was found to be 0.84 ratio; in assay [2], 0.9 ratio; in assay [3] it was 0.99 ratio.

B12: P54AR4-83v2 F27C, NEM conjugate (designed binder, not shown: small tags and cut ends)
chain: LPAPKNLVVSEVTEDSARLSWDDPWACYESFLIQYQESEKVGEAIVLTVPGSERSYDLTGLKPGTEYTVSIYGVHNVYKDTNMRGLPLSAIFTT
modifications: N-ethyl maleimide (NEM) on Cys 27
B12: the “binding relative to P54AR4-83v2 parent” value in assay [1] turned out to be 0 ratio; in assay [2], 0.23 ratio; in assay [3] it was 0.07 ratio.

B13: P54AR4-83v2 D23C, NEM conjugate (designed binder, not shown: small tags and cut ends)
chain: LPAPKNLVVSEVTEDSARLSWDCPWAFYESFLIQYQESEKVGEAIVLTVPGSERSYDLTGLKPGTEYTVSIYGVHNVYKDTNMRGLPLSAIFTT
modifications: N-ethyl maleimide (NEM) on Cys 23
As to B13, the figures for the “binding relative to P54AR4-83v2 parent” value in assay [1], in assay [2] and in assay [3] were 0.02 ratio, 0.4 ratio and 0.2 ratio, respectively.

B14: P54AR4-83v2 A90C, NEM conjugate (designed binder, not shown: small tags and cut ends)
chain: LPAPKNLVVSEVTEDSARLSWDDPWAFYESFLIQYQESEKVGEAIVLTVPGSERSYDLTGLKPGTEYTVSIYGVHNVYKDTNMRGLPLSCIFTT
modifications: N-ethyl maleimide (NEM) on Cys 90
Consider B14, for which the “binding relative to P54AR4-83v2 parent” value in assay [1] came to 0.94 ratio; in assay [2], 1.01 ratio; in assay [3], 1.05 ratio.

B15: P54AR4-83v2 F31C, NEM conjugate (designed binder, not shown: small tags and cut ends)
chain: LPAPKNLVVSEVTEDSARLSWDDPWAFYESCLIQYQESEKVGEAIVLTVPGSERSYDLTGLKPGTEYTVSIYGVHNVYKDTNMRGLPLSAIFTT
modifications: N-ethyl maleimide (NEM) on Cys 31
For the molecule B15, the “binding relative to P54AR4-83v2 parent” value in assay [1] turned out to be 0.04 ratio; in assay [2], 0.62 ratio; in assay [3], 0.34 ratio.

B16: P54AR4-83v2 E29C, NEM conjugate (designed binder, not shown: small tags and cut ends)
chain: LPAPKNLVVSEVTEDSARLSWDDPWAFYCSFLIQYQESEKVGEAIVLTVPGSERSYDLTGLKPGTEYTVSIYGVHNVYKDTNMRGLPLSAIFTT
modifications: N-ethyl maleimide (NEM) on Cys 29
For the molecule B16, the “binding relative to P54AR4-83v2 parent” value was 0.89 ratio in assay [1], 0.93 ratio in assay [2] and 1.07 ratio in assay [3].

B17: P54AR4-83v2 D22C, NEM conjugate (designed binder, not shown: small tags and cut ends)
chain: LPAPKNLVVSEVTEDSARLSWCDPWAFYESFLIQYQESEKVGEAIVLTVPGSERSYDLTGLKPGTEYTVSIYGVHNVYKDTNMRGLPLSAIFTT
modifications: N-ethyl maleimide (NEM) on Cys 22
In the case of B17, the “binding relative to P54AR4-83v2 parent” value in assay [1] stood at 0.84 ratio; in assay [2], 0.9 ratio; in assay [3] it was 1.02 ratio.

B18: P54AR4-83v2 E14C, NEM conjugate (designed binder, not shown: small tags and cut ends)
chain: LPAPKNLVVSEVTCDSARLSWDDPWAFYESFLIQYQESEKVGEAIVLTVPGSERSYDLTGLKPGTEYTVSIYGVHNVYKDTNMRGLPLSAIFTT
modifications: N-ethyl maleimide (NEM) on Cys 14
As to B18, the entries for the “binding relative to P54AR4-83v2 parent” value in assay [1], in assay [2] and in assay [3] were 1.11 ratio, 1.15 ratio and 1.27 ratio, respectively.

B19: P54AR4-83v2 D80C, NEM conjugate (designed binder, not shown: small tags and cut ends)
chain: LPAPKNLVVSEVTEDSARLSWDDPWAFYESFLIQYQESEKVGEAIVLTVPGSERSYDLTGLKPGTEYTVSIYGVHNVYKCTNMRGLPLSAIFTT
modifications: N-ethyl maleimide (NEM) on Cys 80
Regarding B19, the “binding relative to P54AR4-83v2 parent” value was determined as 0.7 ratio in assay [1], 0.91 ratio in assay [2] and 0.97 ratio in assay [3].
